In PMC10319729:

Biological target: LGR4 co-expressed with ZNRF3ΔRING on HEK293T cells (LGR4-E3 ligase complex), Q9BXB1

EC50 of TOPFlash (Wnt/β-catenin reporter) activity in STF cells, which endogenously express LGR4, RNF43 and ZNRF3: 790 pM
B1: RSPO2 furin domain with a C-terminal His tag (R2Fu-His), Q6UXX9 37-143 (domain or fragment)
chain: NPICKGCLSCSKDNGCSRCQQKLFFFLRREGMRQYGECLHSCPSGYYGHRAPDMNRCARCRIENCDSCFSKDFCTKCKVGFYLHRGRCFDECPDGFAPLEETMECVE
